Tests used:
HLA-B*51:01 = assay: IEDB peptide-MHC binding, purified MHC/competitive/radioactivity; filed as Kd, often an IC50 or EC50 that approximates it; ≥ and ≤ were set here for values at or beyond the usual limits of such assays
HLA-A*01:01 = assay: as above
HLA-A*30:02 = assay: as above
HLA-B*15:01 = assay: as above
HLA-A*02:01 = assay: IEDB peptide-MHC binding, purified MHC/competitive/fluorescence; filed as Kd, often an IC50 or EC50 that approximates it; ≥ and ≤ were set here for values at or beyond the usual limits of such assays
HLA-A*24:02 = assay: IEDB peptide-MHC binding, purified MHC/competitive/radioactivity; filed as Kd, often an IC50 or EC50 that approximates it; ≥ and ≤ were set here for values at or beyond the usual limits of such assays
HLA-A*26:01 = assay: as above
HLA-A*29:02 = assay: as above
HLA-A*30:01 = assay: as above
HLA-A*32:01 = assay: as above
HLA-A*23:01 = assay: as above; details: source organism: Mammarenavirus whitewaterense
[1] = source organism: Dengue virus 1 Brazil/97-11/1997
[2] = source organism: Dengue virus 4 Philippines/H241/1956
[3] = source organism: Vaccinia virus WR
[4] = source organism: Lassa virus Josiah
[5] = source organism: Mammarenavirus whitewaterense
[6] = source organism: Mammarenavirus brazilense
[7] = source organism: Mammarenavirus choriomeningitidis

Sequence IALFLAHAI has a Kd (HLA-B*51:01; [1]) of 135 nM.

With ILGAQALPVY the Kd (HLA-A*01:01; [2]) was ≥ 70400 nM, the Kd (HLA-A*30:02; [2]) was 80.8 nM and the Kd (HLA-B*15:01; [2]) was 4.87 nM.

Sequence ILKKLSPYF has a Kd (HLA-B*15:01; [3]) of 1.18 nM.

In the case of ILTLANWCL, the Kd (HLA-A*02:01; source organism: Escherichia coli O139:H28 str. E24377A) is reported as 0.2 nM.

IMMLKLLTEF gave a Kd (HLA-A*24:02; [1]) of 309 nM and a Kd (HLA-B*15:01; [1]) of 6.24 nM.

With ITEMLQKEY the Kd (HLA-A*01:01; [4]) was 18.8 nM, the Kd (HLA-A*26:01; [4]) was ≥ 77900 nM and the Kd (HLA-A*29:02; [4]) was 7650 nM. The Kd (HLA-A*30:01; [4]) was 4750 nM, the Kd (HLA-A*30:02; [4]) was 172 nM and the Kd (HLA-A*32:01; [4]) was ≥ 77800 nM.

With KFWYVNHTGF the Kd (HLA-A*23:01) was 80.9 nM, the Kd (HLA-A*24:02; [5]) was 604 nM and the Kd (HLA-A*29:02; [5]) was 341 nM.

Work on KIDTTHVSKV yielded a Kd (HLA-A*02:01; source organism: Vaccinia virus Tian Tan) of 206 nM.

In the case of KIEIERKKL, the Kd (HLA-A*02:01; [3]) is reported as 422 nM.

Sequence KQSNTNKHM has a Kd (HLA-B*15:01; [3]) of 27.8 nM.

In the case of KTETTILDV, the Kd (HLA-A*01:01; [2]) is reported as 6200 nM.

Work on KTFFWFNEV yielded a Kd (HLA-A*01:01; [6]) of 11500 nM, a Kd (HLA-A*26:01; [6]) of 12500 nM and a Kd (HLA-A*29:02; [6]) of 18600 nM. It also gave a Kd (HLA-A*30:01; [6]) of 93.2 nM, a Kd (HLA-A*30:02; [6]) of 59.2 nM and a Kd (HLA-A*32:01; [6]) of 7.26 nM.

With KTGESSRSY the Kd (HLA-A*01:01; [7]) was 3660 nM, the Kd (HLA-A*26:01; [7]) was ≥ 77900 nM and the Kd (HLA-A*29:02; [7]) was 16700 nM. The Kd (HLA-A*30:01; [7]) was 1090 nM, the Kd (HLA-A*30:02; [7]) was 63.3 nM and the Kd (HLA-A*32:01; [7]) was 14300 nM.

LAAIANQAV was tested, and the Kd (HLA-B*51:01; source organism: Dengue virus 3 Martinique/1243/1999) was 1360 nM.

Work on LAIPPTAGI yielded a Kd (HLA-B*51:01; [1]) of 393 nM.

From the Immune Epitope Database (IEDB)
